# Source: the Immune Epitope Database (IEDB)
# Assays:
# Conditions in all cases: source organism: Bacillus anthracis str. A0488
# HLA-A*02:01 = assay: IEDB peptide-MHC binding, purified MHC/direct/fluorescence; filed as Kd, often an IC50 or EC50 that approximates it; ≥ and ≤ were set here for values at or beyond the usual limits of such assays
# HLA-A*02:03 = assay: as above
# HLA-A*02:11 = assay: as above
# HLA-A*02:12 = assay: as above
# HLA-A*02:16 = assay: as above
# HLA-A*02:19 = assay: as above
# HLA-A*03:01 = assay: as above
# HLA-A*23:01 = assay: as above
# HLA-A*26:01 = assay: as above
# HLA-A*68:02 = assay: as above
# HLA-B*15:01 = assay: as above
# HLA-B*15:17 = assay: as above
# HLA-B*18:01 = assay: as above
# HLA-B*27:03 = assay: as above
# HLA-B*39:01 = assay: as above
# HLA-B*46:01 = assay: as above
# HLA-B*57:01 = assay: as above
# HLA-A*01:01 = assay: IEDB peptide-MHC binding, purified MHC/competitive/fluorescence; filed as Kd, often an IC50 or EC50 that approximates it; ≥ and ≤ were set here for values at or beyond the usual limits of such assays
# HLA-A*11:01 = assay: as above
# HLA-A*30:01 = assay: as above
# HLA-A*30:02 = assay: as above
# HLA-A*66:01 = assay: as above
# HLA-B*07:02 = assay: as above
# HLA-B*08:01 = assay: as above
# HLA-B*14:02 = assay: as above
# HLA-B*27:05 = assay: as above
# HLA-B*40:01 = assay: as above
# HLA-B*44:02 = assay: as above
# HLA-B*51:01 = assay: as above
# HLA-B*53:01 = assay: as above
# HLA-B*58:01 = assay: as above
sequence,measurement,setting,value
WDAYIPHYV,Kd,HLA-A*02:01,≥ 20 µM
same,Kd,HLA-A*02:03,≥ 20 µM
same,Kd,HLA-A*02:11,≥ 20 µM
same,Kd,HLA-A*02:12,≥ 20 µM
same,Kd,HLA-A*02:16,≥ 20 µM
same,Kd,HLA-A*02:19,≥ 20 µM
same,Kd,HLA-A*03:01,≥ 20 µM
same,Kd,HLA-A*23:01,≥ 20 µM
same,Kd,HLA-A*26:01,≥ 20 µM
same,Kd,HLA-A*68:02,≤ 0.001 µM
same,Kd,HLA-B*15:01,≥ 20 µM
same,Kd,HLA-B*15:17,≥ 20 µM
same,Kd,HLA-B*18:01,≥ 20 µM
same,Kd,HLA-B*27:03,≥ 20 µM
same,Kd,HLA-B*39:01,≥ 20 µM
same,Kd,HLA-B*46:01,≥ 20 µM
same,Kd,HLA-B*57:01,≥ 20 µM
same,Kd,HLA-A*01:01,≥ 5 µM
same,Kd,HLA-A*11:01,≥ 5 µM
same,Kd,HLA-A*30:01,≥ 5 µM
same,Kd,HLA-A*30:02,≥ 5 µM
same,Kd,HLA-A*66:01,≥ 5 µM
same,Kd,HLA-B*07:02,≥ 5 µM
same,Kd,HLA-B*08:01,≥ 5 µM
same,Kd,HLA-B*14:02,≥ 5 µM
same,Kd,HLA-B*27:05,≥ 5 µM
same,Kd,HLA-B*40:01,≥ 5 µM
same,Kd,HLA-B*44:02,≥ 5 µM
same,Kd,HLA-B*51:01,0.535 µM
same,Kd,HLA-B*53:01,≥ 5 µM
same,Kd,HLA-B*58:01,≥ 5 µM
